In patent US10100114B2, “Antibodies specific for TROP-2 and their uses” (RINAT NEUROSCIENCE CORP., priority 2011, dated 2018):

T1: human Trop-2-hFc (Homo sapiens, UniProt P09758)
T1 construct: Monomeric Trop-2 extracellular domain prepared from papain digestion of Trop-2-Fc fusion protein
T1 sequence (P09758 27-274 limits assumed): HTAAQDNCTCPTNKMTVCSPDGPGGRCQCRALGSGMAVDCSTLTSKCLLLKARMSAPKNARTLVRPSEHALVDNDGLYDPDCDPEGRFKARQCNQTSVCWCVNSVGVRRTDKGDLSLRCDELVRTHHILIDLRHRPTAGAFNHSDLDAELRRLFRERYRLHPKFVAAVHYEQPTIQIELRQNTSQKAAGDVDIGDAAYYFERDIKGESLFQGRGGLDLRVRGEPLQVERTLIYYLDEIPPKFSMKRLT

B1: h7E6: humanized anti-Trop-2 antibody, VL SEQ ID NO: 3, VH SEQ ID NO: 4 (antibody, V domains shown)
VH: QVQLQESGPGLVKPSETLSLTCTVSGGSISSYGVHWIRQPPGKGLEWIGVIWTGGSTDYNSALMSRVTISVDTSKNQFSLKLSSVTAADTAVYYCARDGDYDRYTMDYWGQGTLVTVSS
VL: DIVMTQSPDSLAVSLGERATINCRASKSVSTSGYSYMHWYQQKPGQPPKLLIYLASNLESGVPDRFSGSGSGTDFTLTISSLQAEDVAVYYCQHSRELPYTFGQGTKLEIK
B2: h7E6_SVGL: humanized anti-Trop-2 antibody, VL SEQ ID NO: 6, VH SEQ ID NO: 5 (antibody, V domains shown)
VH: QVQLQESGPGLVKPSETLSLTCTVSGGSISSYGVHWIRQPPGKGLEWIGVIWTSGVTDYNSALMGRVTISVDTSKNQFSLKLSSVTAADTAVYYCARDGDYDRYTMDYWGQGTLVTVSS
VL: DIVMTQSPDSLAVSLGERATINCRASKSVSTSLYSYMHWYQQKPGQPPKLLIYLASNLESGVPDRFSGSGSGTDFTLTISSLQAEDVAVYYCQHSRELPYTFGQGTKLEIK
B3: h7E6_N: humanized anti-Trop-2 7E6 antibody, presumably VH SEQ ID NO: 4 with VL_N SEQ ID NO: 7 (antibody, V domains shown)
VH: QVQLQESGPGLVKPSETLSLTCTVSGGSISSYGVHWIRQPPGKGLEWIGVIWTGGSTDYNSALMSRVTISVDTSKNQFSLKLSSVTAADTAVYYCARDGDYDRYTMDYWGQGTLVTVSS
VL: DIVMTQSPDSLAVSLGERATINCRASKSVSTSNYSYMHWYQQKPGQPPKLLIYLASNLESGVPDRFSGSGSGTDFTLTISSLQAEDVAVYYCQHSRELPYTFGQGTKLEIK
B4: h7E6-SVGL-TG1-vcMMAD: h7E6_SVGL hIgG1 with TG1 tag conjugated with AcLys-vcMMAD (conjugate)
VH: QVQLQESGPGLVKPSETLSLTCTVSGGSISSYGVHWIRQPPGKGLEWIGVIWTSGVTDYNSALMGRVTISVDTSKNQFSLKLSSVTAADTAVYYCARDGDYDRYTMDYWGQGTLVTVSS
VL: DIVMTQSPDSLAVSLGERATINCRASKSVSTSLYSYMHWYQQKPGQPPKLLIYLASNLESGVPDRFSGSGSGTDFTLTISSLQAEDVAVYYCQHSRELPYTFGQGTKLEIK
B5: h7E6-SVGN-TG1-vcMMAD: h7E6_SVGN hIgG1 with TG1 tag conjugated with AcLys-vcMMAD (conjugate)
VH: QVQLQESGPGLVKPSETLSLTCTVSGGSISSYGVHWIRQPPGKGLEWIGVIWTSGVTDYNSALMGRVTISVDTSKNQFSLKLSSVTAADTAVYYCARDGDYDRYTMDYWGQGTLVTVSS
VL: DIVMTQSPDSLAVSLGERATINCRASKSVSTSNYSYMHWYQQKPGQPPKLLIYLASNLESGVPDRFSGSGSGTDFTLTISSLQAEDVAVYYCQHSRELPYTFGQGTKLEIK
B6: h7E6_SVGN: humanized anti-Trop-2 antibody, VL SEQ ID NO: 7, VH SEQ ID NO: 5 (antibody, V domains shown)
VH: QVQLQESGPGLVKPSETLSLTCTVSGGSISSYGVHWIRQPPGKGLEWIGVIWTSGVTDYNSALMGRVTISVDTSKNQFSLKLSSVTAADTAVYYCARDGDYDRYTMDYWGQGTLVTVSS
VL: DIVMTQSPDSLAVSLGERATINCRASKSVSTSNYSYMHWYQQKPGQPPKLLIYLASNLESGVPDRFSGSGSGTDFTLTISSLQAEDVAVYYCQHSRELPYTFGQGTKLEIK
B7: h7E6-WT-TG1-vcMMAD: h7E6-WT hIgG1 with TG1 tag conjugated with AcLys-vcMMAD (conjugate)
VH: QVQLQESGPGLVKPSETLSLTCTVSGGSISSYGVHWIRQPPGKGLEWIGVIWTGGSTDYNSALMSRVTISVDTSKNQFSLKLSSVTAADTAVYYCARDGDYDRYTMDYWGQGTLVTVSS
VL: DIVMTQSPDSLAVSLGERATINCRASKSVSTSGYSYMHWYQQKPGQPPKLLIYLASNLESGVPDRFSGSGSGTDFTLTISSLQAEDVAVYYCQHSRELPYTFGQGTKLEIK
B8: h7E6-N-TG1-vcMMAD: h7E6_N hIgG1 with TG1 tag conjugated with AcLys-vcMMAD (conjugate)
VH: QVQLQESGPGLVKPSETLSLTCTVSGGSISSYGVHWIRQPPGKGLEWIGVIWTGGSTDYNSALMSRVTISVDTSKNQFSLKLSSVTAADTAVYYCARDGDYDRYTMDYWGQGTLVTVSS
VL: DIVMTQSPDSLAVSLGERATINCRASKSVSTSNYSYMHWYQQKPGQPPKLLIYLASNLESGVPDRFSGSGSGTDFTLTISSLQAEDVAVYYCQHSRELPYTFGQGTKLEIK
B9: h7E6-L-TG1-vcMMAD: h7E6_L hIgG1 with TG1 tag conjugated with AcLys-vcMMAD (conjugate)
VH: QVQLQESGPGLVKPSETLSLTCTVSGGSISSYGVHWIRQPPGKGLEWIGVIWTGGSTDYNSALMSRVTISVDTSKNQFSLKLSSVTAADTAVYYCARDGDYDRYTMDYWGQGTLVTVSS
VL: DIVMTQSPDSLAVSLGERATINCRASKSVSTSLYSYMHWYQQKPGQPPKLLIYLASNLESGVPDRFSGSGSGTDFTLTISSLQAEDVAVYYCQHSRELPYTFGQGTKLEIK
B10: h7E6_L: humanized anti-Trop-2 antibody comprising SEQ ID NOs: 4 and 6 (antibody, V domains shown)
VH: QVQLQESGPGLVKPSETLSLTCTVSGGSISSYGVHWIRQPPGKGLEWIGVIWTGGSTDYNSALMSRVTISVDTSKNQFSLKLSSVTAADTAVYYCARDGDYDRYTMDYWGQGTLVTVSS
VL: DIVMTQSPDSLAVSLGERATINCRASKSVSTSLYSYMHWYQQKPGQPPKLLIYLASNLESGVPDRFSGSGSGTDFTLTISSLQAEDVAVYYCQHSRELPYTFGQGTKLEIK

Legend:
[1] = biological target: T1, human Trop-2-hFc; assay: Biacore SPR affinity of chimeric and humanized 7E6 Fab, human Trop-2; assay type: binding; settings: recombinant Fab fragments injected over captured human Trop-2-hFc
Description: (§1) The human Trop-2-hFc or cynomolgus monkey Trop-2-hFc proteins were captured on the CM5 EDA chip 37 sensor surface coupled with anti-human Fc.

[2] = tested on: cynomolgus monkey Trop-2-hFc; assay: Biacore SPR affinity of chimeric and humanized 7E6 Fab, cynomolgus Trop-2; assay type: binding; settings: recombinant Fab fragments injected over captured cynomolgus monkey Trop-2-hFc
Description: as §1

[3] = tested on: SW620 (Trop-2 −) cells; assay: Flow cytometry binding, SW620 cells; assay type: cell-based; settings: Table 10, 300,000 cells, 1 ug antibody
Method: For A431 cell staining, 200,000 cells were incubated with 0.5 ug antibody in 100 uL binding buffer (PBS (Phosphate Buffered Saline)+0.5% BSA (Bovine Serum Albumin)), followed by incubation with Dylight488-conjugated goat anti-human (Fab′)2-specific secondary antibody from Jackson immunoresearch Laboratories (West Grove, Pa.). For Colo205 and SW620 cells, 300,000 cells were used with 1 ug of primary antibody, followed by AlexaFluor 647 anti-human (Fab′)2-specific secondary antibody from Jackson immunoresearch Laboratories (West Grove, Pa.).
Similar to Example 7a), binding of chimeric mouse and humanized anti-Trop-2 6G11 antibodies (expressed in human IgG1 subtype) were assessed on Trop-2 expressing (A431 and Colo205) and non-expressing (SW620) cells by flow cytometry. 300,000 cells were used with 1 ug of primary antibody, followed by AlexaFluor 647 anti-human (Fab′)2-specific secondary antibody.

[4] = tested on: SW620 cells (Trop-2 non-expressing); assay: Cytotoxicity of ADCs (CellTiter-Glo), SW620; assay type: cell-based; settings: Table 12, SW620 (Trop-2−), 96 hours after treatment; for IC50: read-out: Ab-IC50
Method: Target expressing (A431, BxPC3, CAPAN-2 and Colo205) or non-expressing (SW620) cells were seeded on white walled clear bottom plates at 2000 cells/well for 24 hours before treatment. Cells were treated with 4 fold serially diluted antibody-drug conjugates in triplicates. Cell viability was determined by CellTiter-Glo® Luminescent Cell Viability Assay 96 (Promega, Madison Wis.) 96 hours after treatment. Relative cell viability was determined as percentage of untreated control. IC50 was calculated by Prism software.
2-methylalanyl-N-[(3R,4S,5S)-3-methoxy-1-{(2S)-2-[(1R,2R)-1-methoxy-2-methyl-3-oxo-3-{[(1S)-2-phenyl-1-(1,3-thiazol-2-yl)ethyl]amino}propyl]pyrrolidin-1-yl}-5-methyl-1-oxoheptan-4-yl]-N-methyl-L-valinamide is a novel auristatin, as described in U.S. Application Nos. 61/561,255 and 61/676,423. Method of conjugating Trop-2 antibodies using transglutaminase tags is described in Example 9. Target expressing or non-expressing (SW620) cells were seeded on white walled clear bottom plates at 2000 (A431, BxPC3, NCI-H292, NCI-H1650, MDA-MB-468 and SW620), 2500 (Calu-3) or 3000 (OVCAR3 and SKBR3) cells per well for 24 hours before treatment. Cells were treated with 4 fold serially diluted antibody-drug conjugates in triplicates. Cell viability was determined by CellTiter-Glo® Luminescent Cell Viability Assay 96 (Promega, Madison, Wis.) 96 hours after treatment. Relative cell viability was determined as percentage of untreated control. IC50 was calculated by GraphPad Prism 5 software and expressed as concentration (nM) of total Ab.

Row | Molecule | ka [1] | kd [1] | ka [2] | kd [2] | % positive [3] | MFI [3] | Ab-IC50 [4] | IC50 [4]
1 | B1 | 139000 M⁻¹ s⁻¹ | 0.00294 s⁻¹ | 144000 M⁻¹ s⁻¹ | 0.00635 s⁻¹ | 2.1% | 143 |  | 
2 | B2 | 131000 M⁻¹ s⁻¹ | 3.27e-05 s⁻¹ | 130000 M⁻¹ s⁻¹ | 7.42e-05 s⁻¹ | 2.6% | 135 |  | 
3 | B3 |  |  |  |  | 2.3% | 151 |  | 
4 | B4 |  |  |  |  |  |  | 10.800 µg/mL | 72 nM
5 | B5 |  |  |  |  |  |  | 10.410 µg/mL | 69.4 nM
6 | B6 |  |  |  |  | 2.5% | 140 |  | 
7 | B7 |  |  |  |  |  |  | 10.330 µg/mL | 68.9 nM
8 | B8 |  |  |  |  |  |  | 11.150 µg/mL | 74.3 nM
9 | B9 |  |  |  |  |  |  | 8.535 µg/mL | 56.9 nM
10 | B10 | 130000 M⁻¹ s⁻¹ | 0.00015 s⁻¹ | 126000 M⁻¹ s⁻¹ | 0.000335 s⁻¹ | 2.5% | 158 |  | 
